Reference: US20030028904A1

Target: His-tagged Dock180 (UniProt Q14185)
Test: cell-based or functional assay

ELMO1-GFP, sequence (Q8BPU7 whole entry): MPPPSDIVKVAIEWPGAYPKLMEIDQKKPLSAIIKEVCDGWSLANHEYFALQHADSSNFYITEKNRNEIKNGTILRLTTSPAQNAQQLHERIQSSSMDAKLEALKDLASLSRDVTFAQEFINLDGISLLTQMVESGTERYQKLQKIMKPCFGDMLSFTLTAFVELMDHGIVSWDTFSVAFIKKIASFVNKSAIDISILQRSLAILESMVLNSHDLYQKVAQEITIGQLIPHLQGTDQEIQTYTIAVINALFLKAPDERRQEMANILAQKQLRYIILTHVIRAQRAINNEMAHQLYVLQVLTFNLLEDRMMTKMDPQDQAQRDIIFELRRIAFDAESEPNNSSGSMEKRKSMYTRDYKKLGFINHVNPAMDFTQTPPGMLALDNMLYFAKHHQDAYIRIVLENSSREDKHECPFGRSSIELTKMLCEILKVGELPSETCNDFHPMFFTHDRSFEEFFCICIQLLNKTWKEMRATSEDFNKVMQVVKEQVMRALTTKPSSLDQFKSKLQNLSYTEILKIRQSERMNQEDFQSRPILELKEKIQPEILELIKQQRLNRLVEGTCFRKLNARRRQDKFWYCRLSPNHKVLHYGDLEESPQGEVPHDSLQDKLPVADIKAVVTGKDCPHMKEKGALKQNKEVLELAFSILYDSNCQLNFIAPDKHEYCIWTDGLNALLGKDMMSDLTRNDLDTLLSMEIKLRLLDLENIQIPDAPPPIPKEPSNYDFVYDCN

ELMO1-GFP (from UniProt Q8BPU7 1-727)
bead uptake in the LR73 phagocytosis assay (GFP positive cells with engulfed particles): 2 fold
